16 substances from article PMC10966104 can be followed below.

Test [1] addresses tail tube protein gp10 of cyanophage A-1(L) (cyanophage A-1(L)). The experiment in a line: cryo-EM structure; intact A-1(L) particles purified from infected Anabaena sp. PCC 7120, in SM buffer (50 mM Tris-HCl pH 7.5, 10 mM MgSO4, 100 mM NaCl); local reconstructions of portal, gp5-neck fiber, gp7-terminator, sheath-tube, baseplate and tail fibers.
Test [2] concerns the target tail sheath protein gp9 of cyanophage A-1(L) (cyanophage A-1(L)). The description is as above.
The target of test [3] is tail terminator gp8 of cyanophage A-1(L) (cyanophage A-1(L)). Described as above.
Test [4] has as its target neck protein gp7 of cyanophage A-1(L) (cyanophage A-1(L)). The description is as above.
Test [5] addresses tape measure protein gp13 of cyanophage A-1(L) (cyanophage A-1(L)). The description is as above.
In test [6] the target is neck fiber protein gp82 of cyanophage A-1(L), in the virion (cyanophage A-1(L)). Described as above.
For test [7], the target named is baseplate wedge protein gp32 of cyanophage A-1(L) (cyanophage A-1(L)). The description is as above.
In test [8] the target is short tail fiber gp33 of cyanophage A-1(L) (cyanophage A-1(L)). The description is as above.
Test [9] concerns the target central spike gp25 of cyanophage A-1(L) (cyanophage A-1(L)). The description is as above.
Test [10] has as its target recombinant gp82 of the neck fiber gp82-gp81-gp80-His6 (cyanophage A-1(L)). The experiment in a line: SEC-MALS; recombinant neck fiber gp82-gp81-gp80-His6, 1 mg/mL, 100 uL, Superdex 200 Increase 10/300 GL in binding buffer. A general note: Size exclusion chromatography separates by hydrodynamic size, large species first.
The target in test [11] is recombinant gp80-His6 of the neck fiber (cyanophage A-1(L)). The test is described as above.
The target of test [12] is sheath initiator gp30 of cyanophage A-1(L) (cyanophage A-1(L)). As to the kind of experiment: cryo-EM structure; intact A-1(L) particles purified from infected Anabaena sp. PCC 7120, in SM buffer (50 mM Tris-HCl pH 7.5, 10 mM MgSO4, 100 mM NaCl); local reconstructions of portal, gp5-neck fiber, gp7-terminator, sheath-tube, baseplate and tail fibers.
The target of test [13] is tube initiator gp18 of cyanophage A-1(L) (cyanophage A-1(L)). The test is described as above.
In test [14] the target is neck protein gp5 of cyanophage A-1(L) (cyanophage A-1(L)). The test is described as above.
Test [15] addresses long tail fiber gp34 of cyanophage A-1(L) (cyanophage A-1(L)). Described as above.
For test [16], the target named is baseplate hub gp15 of cyanophage A-1(L) (cyanophage A-1(L)). The description is as above.
For test [17], the target named is portal protein gp2 of cyanophage A-1(L) (cyanophage A-1(L)). The description is as above.

The substance “tail tube protein gp10 of cyanophage A-1(L) (natural protein)” returned a stoichiometry N (subunits in a ring) in test [1] of 6.

As for “tail sheath protein gp9 of cyanophage A-1(L) (natural protein)”, the stoichiometry N (subunits in a ring) in [2] is 6.

What is called stoichiometry N is the number of molecules, sites or subunits per partner or assembly. In the case of “tail terminator gp8 of cyanophage A-1(L) (natural protein)”, in [3], the stoichiometry N is 6 subunits.

Turning to “neck protein gp7 of cyanophage A-1(L) (natural protein)”, the stoichiometry N in [4] was 6 subunits.

“tape measure protein gp13 of cyanophage A-1(L) (natural protein)” had a stoichiometry N in [5] of 6.

In the case of “neck fiber protein gp82 of cyanophage A-1(L), in the virion (natural protein)”, in test [6], the stoichiometry N stood at 3 subunits.

Regarding “baseplate wedge protein gp31 of cyanophage A-1(L) (natural protein)”, the stoichiometry N (gp31 per gp32) in test [7] was determined as 2.

Take “short tail fiber gp33 of cyanophage A-1(L) (natural protein)”: the stoichiometry N in test [8] was 3 subunits.

In turn, “central spike gp25 of cyanophage A-1(L) (natural protein)” gave a stoichiometry N in [9] of 3 subunits.

Regarding “recombinant gp81 of the neck fiber (natural protein)”, the stoichiometry N (gp81 trimers per gp82 trimer) in test [10] was 14. In addition, the stoichiometry N (gp81 trimers per gp80 trimer) in test [11] came out at 14.

For the substance “sheath initiator gp30 of cyanophage A-1(L) (natural protein)”, in test [12], the stoichiometry N was determined as 6 subunits.

In test [13], “tube initiator gp18 of cyanophage A-1(L) (natural protein)” came in with a stoichiometry N of 6 subunits.

In test [14], “neck protein gp5 of cyanophage A-1(L) (natural protein)” showed a stoichiometry N of 15 subunits.

Substance “long tail fiber gp34 of cyanophage A-1(L) (natural protein)” displayed a stoichiometry N in test [15] of 3 subunits.

With “baseplate hub gp15 of cyanophage A-1(L) (natural protein)”, the stoichiometry N in test [16] stood at 3 subunits.

In turn, “portal protein gp2 of cyanophage A-1(L) (natural protein)” gave a stoichiometry N in test [17] of 12 subunits.
